The target of test [1] is T1, Fc-Mer (MERTK Fc chimera) (human, UniProt Q12866 21-505).
T1 chain: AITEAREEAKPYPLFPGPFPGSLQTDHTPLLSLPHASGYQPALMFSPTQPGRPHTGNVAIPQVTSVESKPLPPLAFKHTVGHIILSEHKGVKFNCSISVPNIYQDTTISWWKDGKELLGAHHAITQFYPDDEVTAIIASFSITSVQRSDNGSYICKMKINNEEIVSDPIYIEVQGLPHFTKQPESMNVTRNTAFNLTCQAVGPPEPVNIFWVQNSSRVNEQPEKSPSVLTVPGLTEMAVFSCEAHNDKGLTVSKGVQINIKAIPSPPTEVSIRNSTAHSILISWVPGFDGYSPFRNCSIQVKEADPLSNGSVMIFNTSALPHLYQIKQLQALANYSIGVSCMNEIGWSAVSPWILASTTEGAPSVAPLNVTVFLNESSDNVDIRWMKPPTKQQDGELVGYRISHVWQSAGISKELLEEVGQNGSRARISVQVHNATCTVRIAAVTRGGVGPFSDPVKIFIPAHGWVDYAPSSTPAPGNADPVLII
Briefly: SPR.

Test [2] concerns the target T2, Gas6, recombinant human, His-tagged (human, UniProt Q14393 31-678).
T2 construct: human GAS6, recombinant, bought from R&D Systems; Limits and the end of the tag are in the vendor's data sheet; also called H6-tagged-GAS6; source: bought: R&D Systems (885-GSB-050)
T2 sequence (looked up): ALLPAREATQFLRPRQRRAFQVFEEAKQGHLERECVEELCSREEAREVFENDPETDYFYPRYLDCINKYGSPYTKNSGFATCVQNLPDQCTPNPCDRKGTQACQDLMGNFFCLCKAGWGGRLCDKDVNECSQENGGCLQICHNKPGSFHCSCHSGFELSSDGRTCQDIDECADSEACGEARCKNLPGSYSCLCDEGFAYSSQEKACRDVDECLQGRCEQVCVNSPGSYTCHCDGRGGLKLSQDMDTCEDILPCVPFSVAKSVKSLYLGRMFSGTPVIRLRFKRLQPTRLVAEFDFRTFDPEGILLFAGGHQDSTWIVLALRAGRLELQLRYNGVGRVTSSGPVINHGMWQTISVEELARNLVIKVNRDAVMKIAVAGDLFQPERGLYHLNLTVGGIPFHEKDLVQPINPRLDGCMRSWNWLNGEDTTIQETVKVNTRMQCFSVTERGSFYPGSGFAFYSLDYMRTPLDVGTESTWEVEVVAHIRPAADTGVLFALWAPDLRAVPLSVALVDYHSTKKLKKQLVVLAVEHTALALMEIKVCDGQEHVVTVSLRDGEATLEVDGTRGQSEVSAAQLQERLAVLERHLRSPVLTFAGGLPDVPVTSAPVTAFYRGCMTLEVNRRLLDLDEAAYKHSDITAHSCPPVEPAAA
The experiment in a line: SPR; Biacore T200, CM5 chip; Protein A amine-coupled (2300 RU), Fc-Mer (150 RU) or Fc-Axl (140 RU) captured; Gas6 or PGRN injected at 20 uL/min for 500 s, 1000 s dissociation; HBS-EP+ with 1.5 mM CaCl2 and 0.1% BSA; 1:1 kinetic model. Particulars: both partners purified.

B1: Gas6, recombinant human, His-tagged (ligand)
chain: T2 sequence (looked up)
On to B1, for which the off-rate (koff) in test [1] was 0.000888 s⁻¹.

B2: Fc-Mer (MERTK Fc chimera) (Fc fusion, human, UniProt Q12866 21-505, looked up)
chain: T1 chain
notes: human MERTK (Mer) part of the bought Fc chimera; Captured on Protein A by its Fc; As far as I recall the vendor's product is the extracellular domain of human Mer fused to human IgG1 Fc at the C-terminus; limits are in the vendor's data sheet; source: bought: R&D Systems (891-MR-100)
For B2, the dissociation constant Kd in test [2] was found to be 27.7 nM.

For the origin of these results see article PMC12218935, “Opposing role of phagocytic receptors MERTK and AXL in Progranulin deficient FTD” (Communications Biology, 2025).
